From the supplement of paper PMC9112550, “Optimization of the antimicrobial peptide Bac7 by deep mutational scanning” (BMC Biology, 2022) come the findings set out here.

The subject of this data set is Escherichia coli TOP10. As to the kind of experiment: shrunken log2 fold change of peptide-encoding DNA abundance (4.5 h post-induction vs induction); higher = less antimicrobial activity (less host growth inhibition). To be noted: time post-induction: 4.5 h; library: site-saturation at positions 5, 18, 19, 20.
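Also: peptides expressed intracellularly from a pBAD plasmid library in pooled LB shake-flask culture, induced with 0.3% L-arabinose, DNA abundance read by NGS, three biological replicates, DESeq2 with apeglm shrinkage.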

As to RRIRFRPPRLPRPRPRPNTDPRP, the “shrunken log2 fold change” value is -0.384.

RRIRSRPPRLPRPRPRPHLLPRP: the “shrunken log2 fold change” value is -0.097.

For RRIRDRPPRLPRPRPRPLTIPRP, the “shrunken log2 fold change” value was -0.257.

In the case of RRIRDRPPRLPRPRPRPFGAPRP, the “shrunken log2 fold change” value turned out to be 0.191.

Consider RRIRFRPPRLPRPRPRPGSQPRP, for which the “shrunken log2 fold change” value was -0.117.

As to RRIRERPPRLPRPRPRPTTIPRP, the “shrunken log2 fold change” value was -0.627.

As to RRIRIRPPRLPRPRPRPGDPPRP, the “shrunken log2 fold change” value was -0.0811.

Take RRIRARPPRLPRPRPRPYFFPRP: the “shrunken log2 fold change” value is -0.225.

Take RRIRERPPRLPRPRPRPPGTPRP: the “shrunken log2 fold change” value turned out to be 0.152.

For RRIRIRPPRLPRPRPRPGWTPRP, the “shrunken log2 fold change” value is 0.11.

Regarding RRIRERPPRLPRPRPRPFSFPRP, the “shrunken log2 fold change” value was 0.122.

Consider RRIRRRPPRLPRPRPRPAGFPRP, for which the “shrunken log2 fold change” value was found to be 0.439.

As to RRIRQRPPRLPRPRPRPFEKPRP, the “shrunken log2 fold change” value was -0.0519.

With RRIRYRPPRLPRPRPRPSEPPRP, the “shrunken log2 fold change” value was -0.205.

RRIRIRPPRLPRPRPRPIKYPRP: the “shrunken log2 fold change” value is -2.06.

Consider RRIRNRPPRLPRPRPRPLYAPRP, for which the “shrunken log2 fold change” value is -0.0693.

As for RRIRERPPRLPRPRPRPFGTPRP, the “shrunken log2 fold change” value was -0.135.

Consider RRIRFRPPRLPRPRPRPQIFPRP, for which the “shrunken log2 fold change” value is -0.172.

RRIRMRPPRLPRPRPRPASAPRP: the “shrunken log2 fold change” value was 1.09.

Consider RRIRDRPPRLPRPRPRPIKNPRP, for which the “shrunken log2 fold change” value is -0.158.

On to RRIRERPPRLPRPRPRPMTFPRP, for which the “shrunken log2 fold change” value was -0.081.

With RRIRDRPPRLPRPRPRPTDPPRP, the “shrunken log2 fold change” value was determined as 0.0862.

On to RRIRGRPPRLPRPRPRPDTPPRP, for which the “shrunken log2 fold change” value was 0.799.

Turning to RRIRWRPPRLPRPRPRPECGPRP, the “shrunken log2 fold change” value was found to be 1.37.

Take RRIRKRPPRLPRPRPRPDMDPRP: the “shrunken log2 fold change” value worked out at 0.0224.

As to RRIRNRPPRLPRPRPRPSQNPRP, the “shrunken log2 fold change” value is -0.386.

With RRIRLRPPRLPRPRPRPSSMPRP, the “shrunken log2 fold change” value is -0.179.

On to RRIRARPPRLPRPRPRPGNFPRP, for which the “shrunken log2 fold change” value is -0.226.

Turning to RRIRDRPPRLPRPRPRPLARPRP, the “shrunken log2 fold change” value came to 0.479.

In the case of RRIRERPPRLPRPRPRPNHSPRP, the “shrunken log2 fold change” value is -0.594.

Regarding RRIRWRPPRLPRPRPRPVANPRP, the “shrunken log2 fold change” value was determined as 0.0636.

As for RRIRQRPPRLPRPRPRPVNFPRP, the “shrunken log2 fold change” value was -0.346.

With RRIRVRPPRLPRPRPRPYEYPRP, the “shrunken log2 fold change” value was -0.137.

Consider RRIRMRPPRLPRPRPRPMDQPRP, for which the “shrunken log2 fold change” value is -0.0516.

For the sequence RRIRVRPPRLPRPRPRPNPCPRP, the “shrunken log2 fold change” value is -0.461.

As to RRIRIRPPRLPRPRPRPAVCPRP, the “shrunken log2 fold change” value was -0.214.

Take RRIRDRPPRLPRPRPRPAYLPRP: the “shrunken log2 fold change” value was -0.011.

As to RRIRIRPPRLPRPRPRPDMVPRP, the “shrunken log2 fold change” value worked out at 0.0032.

For RRIRVRPPRLPRPRPRPVVQPRP, the “shrunken log2 fold change” value is -0.039.

Take RRIRPRPPRLPRPRPRPHTDPRP: the “shrunken log2 fold change” value was -0.327.

Consider RRIRFRPPRLPRPRPRPLLMPRP, for which the “shrunken log2 fold change” value is -0.564.

Take RRIRYRPPRLPRPRPRPPTQPRP: the “shrunken log2 fold change” value is -0.056.

Consider RRIRERPPRLPRPRPRPCIEPRP, for which the “shrunken log2 fold change” value was -0.155.

For the sequence RRIRCRPPRLPRPRPRPTFRPRP, the “shrunken log2 fold change” value is 0.0981.

As to RRIRTRPPRLPRPRPRPLFTPRP, the “shrunken log2 fold change” value was -0.352.

In the case of RRIRKRPPRLPRPRPRPRWMPRP, the “shrunken log2 fold change” value came out at 0.273.

With RRIRERPPRLPRPRPRPFLNPRP, the “shrunken log2 fold change” value was -0.0647.

For the sequence RRIRHRPPRLPRPRPRPYTMPRP, the “shrunken log2 fold change” value is -0.393.

Regarding RRIRSRPPRLPRPRPRPSPFPRP, the “shrunken log2 fold change” value is -0.191.

Take RRIRPRPPRLPRPRPRPGYWPRP: the “shrunken log2 fold change” value is 0.278.

For RRIRKRPPRLPRPRPRPLRTPRP, the “shrunken log2 fold change” value stood at 0.727.

Regarding RRIRKRPPRLPRPRPRPIHAPRP, the “shrunken log2 fold change” value is -0.000921.

Consider RRIRMRPPRLPRPRPRPEWQPRP, for which the “shrunken log2 fold change” value was 0.23.

Turning to RRIRPRPPRLPRPRPRPQALPRP, the “shrunken log2 fold change” value was 0.339.

RRIRIRPPRLPRPRPRPYDQPRP: the “shrunken log2 fold change” value was -0.295.

Regarding RRIRVRPPRLPRPRPRPNMHPRP, the “shrunken log2 fold change” value is -0.332.

Consider RRIRFRPPRLPRPRPRPMLMPRP, for which the “shrunken log2 fold change” value was -0.0715.

For RRIRDRPPRLPRPRPRPYHTPRP, the “shrunken log2 fold change” value was -0.403.

Take RRIRARPPRLPRPRPRPYHRPRP: the “shrunken log2 fold change” value was -0.047.

Take RRIRKRPPRLPRPRPRPERNPRP: the “shrunken log2 fold change” value came to 0.683.

RRIRMRPPRLPRPRPRPSCVPRP: the “shrunken log2 fold change” value came out at 0.22.

With RRIRYRPPRLPRPRPRPWNIPRP, the “shrunken log2 fold change” value is -0.01.

Turning to RRIRNRPPRLPRPRPRPADGPRP, the “shrunken log2 fold change” value turned out to be 0.085.

Consider RRIRQRPPRLPRPRPRPRGWPRP, for which the “shrunken log2 fold change” value was 0.267.

On to RRIRIRPPRLPRPRPRPMYNPRP, for which the “shrunken log2 fold change” value was -0.429.

On to RRIRMRPPRLPRPRPRPAGMPRP, for which the “shrunken log2 fold change” value is 0.655.

Consider RRIRQRPPRLPRPRPRPCKGPRP, for which the “shrunken log2 fold change” value was 0.00408.

Regarding RRIRPRPPRLPRPRPRPDMKPRP, the “shrunken log2 fold change” value was -0.417.

RRIRARPPRLPRPRPRPCEGPRP: the “shrunken log2 fold change” value came out at 0.0679.

As to RRIRYRPPRLPRPRPRPHSHPRP, the “shrunken log2 fold change” value is -0.311.

Consider RRIRMRPPRLPRPRPRPNKLPRP, for which the “shrunken log2 fold change” value is -0.145.

As to RRIRNRPPRLPRPRPRPLILPRP, the “shrunken log2 fold change” value was -0.303.

Consider RRIRNRPPRLPRPRPRPMKQPRP, for which the “shrunken log2 fold change” value turned out to be 0.0238.

As to RRIRRRPPRLPRPRPRPMINPRP, the “shrunken log2 fold change” value was -0.157.

Take RRIRERPPRLPRPRPRPAYKPRP: the “shrunken log2 fold change” value was -0.21.

On to RRIRYRPPRLPRPRPRPSDMPRP, for which the “shrunken log2 fold change” value is -0.00973.

Regarding RRIRCRPPRLPRPRPRPEYYPRP, the “shrunken log2 fold change” value was -0.159.

Take RRIRYRPPRLPRPRPRPGDCPRP: the “shrunken log2 fold change” value was -0.189.

RRIRLRPPRLPRPRPRPPVAPRP: the “shrunken log2 fold change” value was found to be 0.387.

Regarding RRIRARPPRLPRPRPRPHVWPRP, the “shrunken log2 fold change” value was found to be 0.29.

Take RRIRLRPPRLPRPRPRPQKAPRP: the “shrunken log2 fold change” value was 0.000116.

Consider RRIRLRPPRLPRPRPRPCGDPRP, for which the “shrunken log2 fold change” value is -0.00813.

For the sequence RRIRARPPRLPRPRPRPWGYPRP, the “shrunken log2 fold change” value was -0.317.

For the sequence RRIRCRPPRLPRPRPRPSNAPRP, the “shrunken log2 fold change” value was -0.572.

On to RRIRTRPPRLPRPRPRPGNTPRP, for which the “shrunken log2 fold change” value was -0.0393.

For RRIRRRPPRLPRPRPRPGEDPRP, the “shrunken log2 fold change” value worked out at 0.00579.

Turning to RRIRQRPPRLPRPRPRPNYHPRP, the “shrunken log2 fold change” value is -0.676.

Regarding RRIRGRPPRLPRPRPRPCDAPRP, the “shrunken log2 fold change” value is 0.473.

RRIRSRPPRLPRPRPRPPCSPRP: the “shrunken log2 fold change” value was determined as 0.198.

Take RRIRYRPPRLPRPRPRPIMFPRP: the “shrunken log2 fold change” value was -1.35.

RRIRKRPPRLPRPRPRPIVSPRP: the “shrunken log2 fold change” value was -0.0354.

For the sequence RRIRQRPPRLPRPRPRPAITPRP, the “shrunken log2 fold change” value is -0.114.

As to RRIRRRPPRLPRPRPRPGVFPRP, the “shrunken log2 fold change” value was 0.278.

With RRIRTRPPRLPRPRPRPPWEPRP, the “shrunken log2 fold change” value stood at 0.506.

As to RRIRERPPRLPRPRPRPCTNPRP, the “shrunken log2 fold change” value was -0.559.

Consider RRIRYRPPRLPRPRPRPVIEPRP, for which the “shrunken log2 fold change” value was -0.424.

In the case of RRIRMRPPRLPRPRPRPMGGPRP, the “shrunken log2 fold change” value was found to be 0.131.

In the case of RRIRTRPPRLPRPRPRPISWPRP, the “shrunken log2 fold change” value was -0.0406.

With RRIRWRPPRLPRPRPRPWCCPRP, the “shrunken log2 fold change” value was -0.065.

Consider RRIRLRPPRLPRPRPRPSPKPRP, for which the “shrunken log2 fold change” value was 0.0205.

As to RRIRTRPPRLPRPRPRPEATPRP, the “shrunken log2 fold change” value was determined as 1.05.

On to RRIRCRPPRLPRPRPRPCTWPRP, for which the “shrunken log2 fold change” value is -0.0985.

In the case of RRIRLRPPRLPRPRPRPKNWPRP, the “shrunken log2 fold change” value is -0.0113.

Consider RRIRVRPPRLPRPRPRPICTPRP, for which the “shrunken log2 fold change” value is -0.00144.

RRIRCRPPRLPRPRPRPIPKPRP: the “shrunken log2 fold change” value was determined as 0.326.

For RRIRMRPPRLPRPRPRPFSMPRP, the “shrunken log2 fold change” value was -0.112.

RRIRSRPPRLPRPRPRPGINPRP: the “shrunken log2 fold change” value came out at 0.00688.

For the sequence RRIRSRPPRLPRPRPRPHRYPRP, the “shrunken log2 fold change” value is -0.606.

For RRIRVRPPRLPRPRPRPHQEPRP, the “shrunken log2 fold change” value was 0.113.

Turning to RRIRQRPPRLPRPRPRPSPIPRP, the “shrunken log2 fold change” value is -0.0339.

On to RRIRFRPPRLPRPRPRPGPQPRP, for which the “shrunken log2 fold change” value is 0.447.

RRIRIRPPRLPRPRPRPTFEPRP: the “shrunken log2 fold change” value was 0.168.

Take RRIRGRPPRLPRPRPRPSKHPRP: the “shrunken log2 fold change” value is -0.0347.

Turning to RRIRYRPPRLPRPRPRPKREPRP, the “shrunken log2 fold change” value amounted to 0.0201.

As to RRIRRRPPRLPRPRPRPATDPRP, the “shrunken log2 fold change” value is 0.204.

Take RRIRDRPPRLPRPRPRPWGCPRP: the “shrunken log2 fold change” value came out at 0.166.

With RRIRHRPPRLPRPRPRPEVWPRP, the “shrunken log2 fold change” value is 0.714.

For RRIRSRPPRLPRPRPRPSDGPRP, the “shrunken log2 fold change” value is -0.124.

With RRIRRRPPRLPRPRPRPGFDPRP, the “shrunken log2 fold change” value is 0.289.

On to RRIRYRPPRLPRPRPRPQRQPRP, for which the “shrunken log2 fold change” value is -0.00525.

As for RRIRLRPPRLPRPRPRPHLMPRP, the “shrunken log2 fold change” value was -0.218.

For RRIRERPPRLPRPRPRPIFGPRP, the “shrunken log2 fold change” value was -0.112.

Turning to RRIRLRPPRLPRPRPRPTFCPRP, the “shrunken log2 fold change” value came out at 0.0876.

As for RRIRFRPPRLPRPRPRPYCYPRP, the “shrunken log2 fold change” value was -0.749.

Consider RRIRRRPPRLPRPRPRPGCSPRP, for which the “shrunken log2 fold change” value came out at 0.344.
